The target of this assay is T1, PVR-Ig (extracellular portion of human PVR fused to the Fc domain of human IgG1) (human, UniProt P15151 21-343).
T1 construct: PVR (poliovirus receptor), human ligand of TIGIT, extracellular portion; source: HEK293T, transfected (pIRESpuro3), secreted, purified (HiTrap Protein G HP)
T1 sequence: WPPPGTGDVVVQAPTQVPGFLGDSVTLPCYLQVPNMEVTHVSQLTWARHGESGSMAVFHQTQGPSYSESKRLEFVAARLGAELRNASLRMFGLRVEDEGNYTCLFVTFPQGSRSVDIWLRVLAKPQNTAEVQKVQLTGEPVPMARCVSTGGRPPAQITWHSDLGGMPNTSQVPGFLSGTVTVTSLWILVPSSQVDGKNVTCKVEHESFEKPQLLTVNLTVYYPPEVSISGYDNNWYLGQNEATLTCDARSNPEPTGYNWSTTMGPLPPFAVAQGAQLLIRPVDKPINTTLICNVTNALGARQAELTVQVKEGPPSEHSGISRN
Nature of the assay: MST; RED-NHS labeled TIGIT-Ig at constant level, unlabeled Ig-fusion proteins serially diluted in 1x PBS; Monolith NT.115, 20% MST power, 95% LED power, standard capillaries, 25 °C. The note with it: both partners purified.

This is an account of results in article PMC9072312, “Candida albicans evades NK cell elimination via binding of Agglutinin-Like Sequence proteins to the checkpoint receptor TIGIT” (Nature Communications, 2022).

B1: TIGIT-Ig (extracellular ligand-binding domain of human TIGIT fused to the Fc domain of human IgG1) (Fc fusion)
chain: MMTGTIETTGNISAEKGGSIILQCHLSSTTAQVTQVNWEQQDQLLAICNADLGWHISPSFKDRVAPGPGLGLTLQSLTVNDTGEYFCIYHTYPDGTYTGRIFLEVLESSVAEHGARFQIP
modifications: fluorescently labeled with the Monolith NT Protein Labeling Kit RED-NHS
notes: also called human TIGIT-Ig; T cell immunoreceptor with Ig and ITIM domains; source: HEK293T, transfected (pIRESpuro3), secreted, purified (HiTrap Protein G HP)
For the molecule B1, the binding result is “binds”.
